Data: article PMC10348947, “Catalytic antibodies in arrhythmogenic cardiomyopathy patients cleave desmoglein 2 and N-cadherin and impair cardiomyocyte cohesion” (Cellular and Molecular Life Sciences: CMLS, 2023)

Target: the molecule itself
Assay: atomic force microscopy (cell-free force spectroscopy); the same Fc construct covalently linked via a PEG linker to the AFM tip and to the mica sheet; 37 °C; HBSS buffer; loading force 0.3 nN, contact delay 0.1 s, retraction velocity 1 µm/s; 1000 force-distance curves for the baseline trans-interaction probability, then 1 h with patient or control IgG (1:50)

B1: Recombinant human N-cadherin extracellular domain tagged with Fc fragment (N-CAD-Fc) (Fc fusion, UniProt P19022 160-724, looked up)
chain: DWVIPPINLPENSRGPFPQELVRIRSDRDKNLSLRYSVTGPGADQPPTGIFIINPISGQLSVTKPLDREQIARFHLRAHAVDINGNQVENPIDIVINVIDMNDNRPEFLHQVWNGTVPEGSKPGTYVMTVTAIDADDPNALNGMLRYRIVSQAPSTPSPNMFTINNETGDIITVAAGLDREKVQQYTLIIQATDMEGNPTYGLSNTATAVITVTDVNDNPPEFTAMTFYGEVPENRVDIIVANLTVTDKDQPHTPAWNAVYRISGGDPTGRFAIQTDPNSNDGLVTVVKPIDFETNRMFVLTVAAENQVPLAKGIQHPPQSTATVSVTVIDVNENPYFAPNPKIIRQEEGLHAGTMLTTFTAQDPDRYMQQNIRYTKLSDPANWLKIDPVNGQITTIAVLDRESPNVKNNIYNATFLASDNGIPPMSGTGTLQIYLLDINDNAPQVLPQEAETCETPDPNSINITALDYDIDPNAGPFAFDLPLSPVTIKRNWTITRLNGDFAQLNLKIKFLEAGIYEVPIIITDSGNPPKSNISILRVKVCQCDSNGDCTDVDRIVGAGLGTGA
notes: N-cadherin (N-CAD), human, extracellular domain-containing protein; The Western blot and cleavage assay used Sino Biological #11039-H03H, probably the same protein; The chain was covalently linked through a PEG linker to the AFM tip and the mica sheet; also called hN-CAD-Fc
  binding result: binds
